Two molecules from patent CN111196850A (BEIJING HUIZHI HEYUAN BIOTECHNOLOGY CO LTD, dated 2020) can be followed below.

Like-named read-outs stand apart in the source and are kept apart here.

Assay [1] deals with rhTSLP-hFc (human). Nature of the assay: cell-based or functional assay.
Assay [2] concerns the target rhTSLP-hFc (human). Nature of the assay: competition ELISA: rhTSLP-hFc coated, antibody titrated against 2 μg/ml rhTSLPR-His, anti-His-HRP detection. In general terms: An ELISA detects its analyte on a solid surface through an enzyme-linked reagent.
The target in assay [3] is T1, 人TSLP (human, UniProt Q969D9 29-159).
T1 construct: also called hTSLP; 人胸腺基质淋巴细胞生成素
Kind of assay: BLI (ForteBio Blitz). (In general: BLI is a label-free optical method that tracks binding on a fibre tip over time.)

For assay [4], the target named is rhTSLP-hFc (human). Kind of assay: competition ELISA: rhTSLP-hFc coated, antibody titrated against 2 μg/ml rhTSLPR-His, anti-His-HRP detection. This is another data set of the same source.

B1: 嵌合抗体6K-3H (antibody, human IgG1, kappa)
heavy: not shown
light: DILLTQSPSSLSASLGGKVIITCKASQDINKYIAWYQHKPGKGLRLLIHYTSTLEPGIPSRFSGSGSGRDYSFSISNLEPEDIATYYCLHYDNLLTFGDGTKLELKRTVAAPSVFIFPPSDEQLKSGTASVVCLLNNFYPREAKVQWKVDNALQSGNSQESVTEQDSKDSTYSLSSTLTLSKADYEKHKLYACEVTHQGLSSPVTKSFNRGEC
Usually IC50 stands for the point on the concentration scale where inhibition reaches its midpoint. A lower IC50 goes with inhibition by little substance. Turning to B1, the “IC50, 抑制TSLP刺激的293F转染细胞STAT5-荧光素酶活性” value in assay [1] is 0.26 µg/mL. Moreover, the IC50 in assay [2] came out at 0.609 µg/mL.

B2: 鼠源TSLP单克隆抗体7A9E3G10E5(6K/3H) (antibody, mouse IgG1, kappa)
heavy: EVKLVETGAELVRPGALVKLSCKTSGFNIKDYYMHWVKQRPEQGLEWIGWIDPENGNTIYDPKFQGKASITADTSSNTAYLHLSSLTSEDTAVYYCAREGDGNYLWFAYWGQGTLVTVSAAKTTPPSVYPLAPGSAAQTNSMVTLGCLVKGYFPEPVTVTWNSGSLSSGVHTFPAVLESDLYTLSSSVTVPSSPRPSETVTCNVAHPASSTKVDKKIVPRDCGCKPCICTVPEVSSVFIFPPKPKDVLTITLTPKVTCVVVDISKDDPEVQFSWFVDDVEVHTAQTQPREEQFNSTFRSVSELPIMHQDWLNGKEFKCRVNSAAFPAPIEKTISKTKGRPKAPQVYTIPPPKEQMAKDKVSLTCMITDFFPEDITVEWQWNGQPAENYKNTQPIMNTNGSYFVYSKLNVQKSNWEAGNTFTCSVLHEGLHNHHTEKSLSHSPGK
light: DILLTQSPSSLSASLGGKVIITCKASQDINKYIAWYQHKPGKGLRLLIHYTSTLEPGIPSRFSGSGSGRDYSFSISNLEPEDIATYYCLHYDNLLTFGDGTKLELKRADAAPTVSIFPPSSEQLTSGGASVVCFLNNFYPKDINVKWKIDGSERQNGVLNSWTDQDSKDSTYSMSSTLTLTKDEYERHNSYTCEATHKTSTSPIVKSFNRNEC
notes: also called 鼠源单克隆抗体6K/3H
The term Kd denotes the constant that tells how readily two partners part at equilibrium. A word on the koff: it is the rate constant with which the complex falls apart. A word on the kon: it is a measure of how fast the partners come together. Higher therefore signals faster complex formation. In assay [3], B2 displayed a Kd of 20.1 nM, a koff of 0.00506 s⁻¹ and a kon of 252000 M⁻¹ s⁻¹. This molecule had an IC50 in assay [4] of 0.428 µg/mL.
